Source: publication PMC3828344

Tests used:
[1] = target: T1, murine norovirus particle (capsid of 180 VP1) (Murine norovirus 1 (MNV-1, clone CW-1)) (UniProt B7XA03); test: filter binding (polycarbonate)
T1 sequence: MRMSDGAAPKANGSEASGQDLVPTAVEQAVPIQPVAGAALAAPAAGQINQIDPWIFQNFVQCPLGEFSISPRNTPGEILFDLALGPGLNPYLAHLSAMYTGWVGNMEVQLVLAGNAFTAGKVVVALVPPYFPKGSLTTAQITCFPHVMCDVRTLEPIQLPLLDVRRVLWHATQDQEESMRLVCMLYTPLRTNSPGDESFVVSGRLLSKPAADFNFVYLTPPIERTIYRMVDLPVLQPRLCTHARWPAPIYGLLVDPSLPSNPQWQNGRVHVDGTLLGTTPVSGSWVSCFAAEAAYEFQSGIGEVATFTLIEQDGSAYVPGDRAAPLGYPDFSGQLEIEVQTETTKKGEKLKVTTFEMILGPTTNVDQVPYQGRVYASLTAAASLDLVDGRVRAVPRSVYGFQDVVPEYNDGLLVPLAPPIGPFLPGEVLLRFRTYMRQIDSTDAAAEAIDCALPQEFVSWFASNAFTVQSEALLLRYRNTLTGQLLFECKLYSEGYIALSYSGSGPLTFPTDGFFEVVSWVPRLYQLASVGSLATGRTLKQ

[2] = target: T1, murine norovirus particle (capsid of 180 VP1) (Murine norovirus 1 (MNV-1, clone CW-1)); test: electrochemical aptasensor (SWV); conditions: thiol (end not stated in material); GSB: 50 mM NaCl, 20 mM Tris-HCl pH 7.4, 3 mM MgCl2, 5 mM KCl, room temperature (anisotropy ~1 h; filter 24 h); aptasensor: Dulbecco's PBS, 25 C, 1 h

Sequence	K half [1] [pM]	binding signal (% of current decrease (110.6 to 34.6 uA)) [2]
GCTAGCGAATTCCGTACGAAGGGCGAATTCCACATTGGGCTGCAGCCCGGGGGATCC [AG3]	0.1	
GCTAGCGAATTCCGTACGAAGGGCGAATTCCACATTGGGCTGCAGCCCGGGGGATCC [thiolated AG3 (aptasensor)]		100
